Experimental findings from patent US20210047418A1 (VESTLANDETS INNOVASJONSSELSKAP, published 2021) are described below.

Test [1] concerns the target T1, human integrin α11 subunit (human, UniProt Q9UKX5 23-1188).
T1 construct: whole, on cells; In C2C12-α11 cells and their lysates the human α11 chain is present as α11β1 heterodimer (the legend says 'Immunoprecipitation of integrin α11β1'); the β1 partner in the mouse cells is not described; In the staining and blot experiments cells were methanol fixed, lysed or the tissue was formalin fixed and paraffin embedded; also called alpha-11 integrin subunit; integrin chain α11
T1 sequence (looked up): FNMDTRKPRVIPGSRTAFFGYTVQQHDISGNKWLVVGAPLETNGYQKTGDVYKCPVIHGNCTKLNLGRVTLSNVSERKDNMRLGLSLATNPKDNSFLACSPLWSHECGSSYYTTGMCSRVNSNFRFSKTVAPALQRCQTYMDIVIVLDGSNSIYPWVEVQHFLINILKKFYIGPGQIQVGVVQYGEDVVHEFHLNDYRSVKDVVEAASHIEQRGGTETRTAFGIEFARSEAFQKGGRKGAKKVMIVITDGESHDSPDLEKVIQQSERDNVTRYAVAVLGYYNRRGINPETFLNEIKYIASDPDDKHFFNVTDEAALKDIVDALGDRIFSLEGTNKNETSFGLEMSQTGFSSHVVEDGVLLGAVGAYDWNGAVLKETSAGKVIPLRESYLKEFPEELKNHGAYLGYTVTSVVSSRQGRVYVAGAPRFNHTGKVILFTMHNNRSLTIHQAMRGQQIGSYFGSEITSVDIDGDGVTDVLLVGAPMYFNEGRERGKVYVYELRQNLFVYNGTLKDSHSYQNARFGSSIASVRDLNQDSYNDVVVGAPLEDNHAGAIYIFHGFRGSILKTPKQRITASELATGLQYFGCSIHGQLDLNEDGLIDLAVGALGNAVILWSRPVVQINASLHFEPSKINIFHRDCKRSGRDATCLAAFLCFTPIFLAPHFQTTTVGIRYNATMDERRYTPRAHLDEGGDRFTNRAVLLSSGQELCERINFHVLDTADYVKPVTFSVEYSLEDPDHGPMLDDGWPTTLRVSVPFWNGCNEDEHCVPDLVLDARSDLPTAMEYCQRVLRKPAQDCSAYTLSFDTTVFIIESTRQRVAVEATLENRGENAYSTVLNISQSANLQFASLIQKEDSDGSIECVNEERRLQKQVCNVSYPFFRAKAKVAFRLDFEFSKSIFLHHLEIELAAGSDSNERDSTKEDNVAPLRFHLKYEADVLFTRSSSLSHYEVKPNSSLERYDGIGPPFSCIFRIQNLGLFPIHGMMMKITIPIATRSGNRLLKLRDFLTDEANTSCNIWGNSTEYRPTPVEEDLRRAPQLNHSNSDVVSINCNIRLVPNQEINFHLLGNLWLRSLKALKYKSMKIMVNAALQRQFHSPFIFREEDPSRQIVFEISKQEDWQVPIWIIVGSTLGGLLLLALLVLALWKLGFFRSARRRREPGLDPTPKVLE
Put plainly: immunoprecipitation from C2C12-α11 cell lysate, Western blot detection with the polyclonal α11 antibody (FIG. 1C). The method, then:
FIG. 1. Immunological characterization of 210F4B6A4 mAb [0019] A-B. C2C12 mouse myoblast cells expressing human integrin α11-EGFP or WT (wildtype) C2C12 cells were stained with 210F4B6A4 mAb for 1 hour at 4° C. Cells were then washed and stained with goat anti-mouse R-Phycoerythrin IgG. Samples were analysed by flow cytometry using Intellicyt iQue and fluorescence intensity was measured. [0020] C. Immunoprecipitation (IP) of integrin α11β1 with the 210F4B6A4 mAb and the polyclonal α11 antibody (α11 pAb)[5]. Protein bands of integrin chain α11 at the expected size after immunoprecipitation using α11 antibodies followed by Western blotting and detection using the polyclonal α11 antibody. [0021] D. Western-blotting (WB) using the α11 210F4B6A4 mAb on C2C12-hu α11-EGFP lysate, shown is the protein band of expected size of aα11-EGFP (180 kDa). [0022] E. C2C12 mouse myoblast cells expressing human integrin α11 were allowed to attach on collagen I-cocated coverslips for 2 hours, cell were then fixed with methanol and incubated with 210F4B6A4 mAb or control IgG. Bound antibody was detected using goat anti-mouse Alexa Fluor 594. Integrin α11 staining in cell focal adhesions is indicated by white arrowheads. […]
For orientation: A western blot detects proteins with antibodies after separation by electrophoresis.

Another test concerns the target T2, human integrin α11-EGFP (human, UniProt Q9UKX5 23-1188).
T2 construct: whole, on cells; Fusion of about 180 kDa by the legend; In the Western blot it stood as denatured protein from cell lysate; also called hu α11-EGFP; C2C12-hu α11-EGFP; not shown: EGFP tag
T2 sequence (looked up): T1 sequence (looked up)
Put plainly: Western blot on C2C12-hu α11-EGFP lysate (FIG. 1D).

B1: monoclonal mouse anti-human integrin alpha-11 antibody clone 210 F4B6A4 produced by the hybridoma deposited as DSM ACC3320 (antibody, V domains shown)
VH: EVQLQQSGAELVRPGASVKVSCTASGFNIKDDYIHWMRRRPAQGLEWIGWIDPENGDTEYASNFQGKATTTVDVSSNTAYLQLSRLTSEDTAIYYCSREYAYWGQGTLVTVSA
VL: DVVMTQTPLSLPVSLGDQASISCRSSQSLLYSNGNTYLQWYLQKPGQSPKLLIYRASNRFSGVPDRFSGSGSGTDFTLKISRVEAEDLGVYFCSQSTHVPWTFGGGTKLEIK
notes: Mouse monoclonal antibody from hybridoma (used partly as hybridoma supernatant); also called 210F4B6A4 mAb; F210F4B6A4
With B1, the binding result (in test [1]; with human integrin α11-EGFP) was “binds” each time.
